Test results from patent publication US11666658B2, “Rifamycin analogs and antibody-drug conjugates thereof” (Regeneron Pharmaceuticals, Inc., priority 2018, dated 2023).

T1: MSR1-mediated DiI-AcLDL uptake in HEK293.Myc.hMSR1 cells (Homo sapiens, UniProt P21757)
T1 construct: expressed in transfected cells; host or cells: HEK293 (lentiviral transduction, hygromycin selection)
T1 sequence (P21757 1-451): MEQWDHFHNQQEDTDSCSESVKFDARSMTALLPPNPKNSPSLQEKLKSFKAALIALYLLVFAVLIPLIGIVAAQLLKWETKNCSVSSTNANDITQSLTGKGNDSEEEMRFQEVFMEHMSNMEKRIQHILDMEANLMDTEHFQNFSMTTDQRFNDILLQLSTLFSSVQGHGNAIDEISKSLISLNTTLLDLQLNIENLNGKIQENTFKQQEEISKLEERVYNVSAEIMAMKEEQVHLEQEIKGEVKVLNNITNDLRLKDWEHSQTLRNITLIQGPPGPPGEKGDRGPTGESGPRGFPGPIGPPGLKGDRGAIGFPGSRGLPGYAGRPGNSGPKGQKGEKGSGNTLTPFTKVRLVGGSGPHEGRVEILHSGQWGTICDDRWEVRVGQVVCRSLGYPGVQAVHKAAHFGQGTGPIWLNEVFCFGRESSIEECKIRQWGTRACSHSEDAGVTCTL

B1: H2aM21229N: one of "Twelve anti-MSR1 antibodies"; "an 'H2aM' antibody has a mouse IgG2a Fc" (antibody, V domains shown)
VH: EVQLVESGGGLVKPGGSLRLSCAASGFTFSRYSMNWVRQAPGKGLEWVSSISSSSSYIYYGDTVKGRFTISRDNAKKSLYLQMNSLRAEDTAVYYCVRDRGQLVLYFDYWGQGTLVTVSS
VL: DIQMTQSPASLSTSIRDRVTITCRASLSISSFLNWFQQRPGKAPKLLIYVASNLQSGVPSRFSDSGSGTDFTLTISSLQPEDFATYYCQQNYSTPPITFGQGTRLEIK
B2: H1H27739P-N297Q: anti-MSR1 antibody; "antibodies H1H27739P-N297Q and H1H27734P-N297Q showed no inhibition of DiI-AcLDL uptake" (antibody, V domains shown)
VH: EVQLVESGGGLVQPGGSLRLSCTASGFTFSSYAMSWVRQAPGKGLEWVSAISGTGSSTYFTDSVKGRFAISRDNSKNTLYLQMNSLRAEDTAVYYCAKDGEWLSTVTLFDYWGQGTLVTVSS
VL: EIVMTQSPATLSVSPGERATLSCRASQSVSSNLAWYQQKPGQAPRLLIYGASTRATGIPARFSGSGSGTDFTLTISSLQSEDFALYYCQQYFIWPPHPTFGPGTKVDIKR
B3: H1H27734P-N297Q: one of "Twelve anti-MSR1 antibodies" that "bound to parental HEK293 cells"; human IgG1 Fc with N297Q mutation (antibody, V domains shown)
VH: EVQLVESRGGLVQPGGSLRLSCAASGFTFSSYAMSWVRQAPGKGLEWVSAISGSGGSTFYADSVKGRFTISRDNSKNTVYLQMNSLRAEDTAVYYCAKALVLRFLEWLGDYWGQGTLVTVSS
VL: DIQMTQSPSTLSASVGDRVTITCRASQSISSWLAWFQQKPGKAPKLLIYKASSLESGVPSRFSGSGSGTEFTLTISSLQPDDFATYYCQQYKSYWTFGQGTKVEIKR

Each molecule was assayed against T1, MSR1-mediated DiI-AcLDL uptake in HEK293.Myc.hMSR1 cells (assay: Ligand uptake assay, DiI-AcLDL). Conditions: not given.
Type: cell-based
Procedure: The resulting cell line, referred to here as “HEK293.Myc.hMSR1”, was selected and maintained in DMEM containing 10% FBS, NEAA, penicillin/streptomycin, L-glutamine, and 100 μg/mL hygromycin.
After 30 minutes, either oxidized or acetylated low-density lipoprotein (LDL) labeled with 1,1′ dioctadecyl-3,3,3′,3′-tetramethylindocarbocyanine perchlorate (referred to as “DiI-OxLDL” or “DiI-AcLDL,” respectively) was added to the cells at a constant concentration of 10 μg/mL. […] Results were analyzed using nonlinear regression (4-parameter logistics) with the Prism 7 program to obtain EC50 and IC50 values. The percentage of inhibition was calculated with the Relative Fluorescent Unit (RFU) values by using the following equation: […]
In the equation, “RFUBaseline” is the fluorescence value from the cells treated with 10 μg/mL ligand without antibodies, “RFUInhibition” is the minimum fluorescence value with for a particular antibody with 10 μg/mL ligand, and “RFUBackground” is the fluorescence value from cells without any ligand or antibodies.

Row | Molecule | inhibition of DiI-AcLDL uptake (in words)
1 | B1 | no inhibition of DiI-AcLDL uptake
2 | B2 | no inhibition of DiI-AcLDL uptake
3 | B3 | no inhibition of DiI-AcLDL uptake

Same assay, conditions: 10 μg/mL DiI-AcLDL

Row | Molecule | IC50, Dil-Acetylated LDL
4 | B1 | no inhibition
5 | B2 | no inhibition
6 | B3 | no inhibition

Same assay, conditions: maximum inhibition of uptake, 10 μg/mL DiI-AcLDL

Row | Molecule | % Inhibition, Dil-Acetylated LDL
7 | B1 | no inhibition
8 | B2 | no inhibition
9 | B3 | no inhibition
